Source: paper PMC10873205 (Nature Structural & Molecular Biology, 2024)

What was measured:
UBE2A [1] = molecular target: UBE2A (UniProt P49459 1-152); experiment: ITC; UBR4 construct in the cell (74 μM), UBE2A in the syringe at tenfold higher concentration; 25 °C; 0.4 µl then 13 injections of 3 µl; UBE2A into buffer subtracted; single site binding model; details: both partners purified
UBE2A [2] = molecular target: T1, UBE2A (UniProt P49459 1-152); experiment: as above; details: both partners purified
T1 construct: also called UBE2A WT; source: E. coli BL21(DE3), purified (glutathione Sepharose 4B or Ni-NTA, SEC); not shown: GST (from the vector pGEX6P-3), N-terminal, cleaved

B1: UBR4_(4828–5183) (domain or fragment)
chain: EELIEEPGLTCCICREGYKFQPTKVLGIYTFTKRVALEEMENKPRKQQGYSTVSHFNIVHYDCHLAAVRLARGREEWESAALQNANTKCNGLLPVWGPHVPESAFATCLARHNTYLQECTGQREPTYQLNIHDIKLLFLRFAMEQSFSADTGGGGRESNIHLIPYIIHTVLYVLNTTRATSREEKNLQGFLEQPKEKWVESAFEVDGPYYFTVLALHILPPEQWRATRVEILRRLLVTSQARAVAPGGATRLTDKAVKDYSAYRSSLLFWALVDLIYNMFKKVPTSNTEGGWSCSLAEYIRHNDMPIYEAADKALKTFQEEFMPVETFSEFLDVAGLLSEITDPESFLKDLLNSVP
modifications: one Zn2+ bound (Cys4838, Cys4841, His4887, Cys4890). The C-terminal limit 5183 is taken from the Fig. 7 title and legend and the structure section; '4828-5130' in the ITC text is treated as a …
In the case of B1, the Kd (UBE2A [1]) is reported as 89.8 µM.

B2: UBR4_(xtal) (UBR4 residues 4,730–5,183) (domain or fragment)
chain: AIQHPGTQVLIGTDSIPNLHKLEQVSSDEGIGTLAENLLEALREHPDVNKKIDAARRETRAEKKRMAMAMRQKALGTLGMTTNEKGQVVTKTALLKQMEELIEEPGLTCCICREGYKFQPTKVLGIYTFTKRVALEEMENKPRKQQGYSTVSHFNIVHYDCHLAAVRLARGREEWESAALQNANTKCNGLLPVWGPHVPESAFATCLARHNTYLQECTGQREPTYQLNIHDIKLLFLRFAMEQSFSADTGGGGRESNIHLIPYIIHTVLYVLNTTRATSREEKNLQGFLEQPKEKWVESAFEVDGPYYFTVLALHILPPEQWRATRVEILRRLLVTSQARAVAPGGATRLTDKAVKDYSAYRSSLLFWALVDLIYNMFKKVPTSNTEGGWSCSLAEYIRHNDMPIYEAADKALKTFQEEFMPVETFSEFLDVAGLLSEITDPESFLKDLLNSVP
notes: UBR4, human, residues 4,730–5,183 (runs to the native C-terminus); holds the unresolved N-terminal region, the hemiRING zinc finger and the UZI subdomain; The GST tag is said to be cleaved for crystallization and autoubiquitination assays; Cloning strategy is in Supplementary Data 1; also called UBR4_(4730–5183); hemiRING-UZI module construct; source: E. coli BL21(DE3), purified (glutathione …)
B2 gave a Kd (UBE2A [2]) of 1.19 µM.

B3: UBR4_(xtal) Ser4930Arg (domain or fragment)
chain: AIQHPGTQVLIGTDSIPNLHKLEQVSSDEGIGTLAENLLEALREHPDVNKKIDAARRETRAEKKRMAMAMRQKALGTLGMTTNEKGQVVTKTALLKQMEELIEEPGLTCCICREGYKFQPTKVLGIYTFTKRVALEEMENKPRKQQGYSTVSHFNIVHYDCHLAAVRLARGREEWESAALQNANTKCNGLLPVWGPHVPERAFATCLARHNTYLQECTGQREPTYQLNIHDIKLLFLRFAMEQSFSADTGGGGRESNIHLIPYIIHTVLYVLNTTRATSREEKNLQGFLEQPKEKWVESAFEVDGPYYFTVLALHILPPEQWRATRVEILRRLLVTSQARAVAPGGATRLTDKAVKDYSAYRSSLLFWALVDLIYNMFKKVPTSNTEGGWSCSLAEYIRHNDMPIYEAADKALKTFQEEFMPVETFSEFLDVAGLLSEITDPESFLKDLLNSVP
notes: also called UBR4 Ser4930Arg; S4930R; source: E. coli BL21(DE3), purified (glutathione sepharose 4B, SEC)
B3: binds (UBE2A [2]).
